The values that follow come from article PMC5888754.

Numbering of substitutions follows the chain as printed. Read-outs that look alike come from different tables or passages of the source.

For data set [1], the system named is CYV-VP3 (Culex Y virus). Kind of data set: competition.
Data set [2] deals with Dcr-2;Loqs-PD (LqPD) (Drosophila melanogaster?;Drosophila …, UniProt A1ZAW0;Q9VJY9-4 1-1722;1-359, |). In words: single-molecule TIRF.
Data set [3] concerns the target T1, DXV-VP3 (Drosophila X virus, UniProt Q96724 724-1032).
T1 sequence: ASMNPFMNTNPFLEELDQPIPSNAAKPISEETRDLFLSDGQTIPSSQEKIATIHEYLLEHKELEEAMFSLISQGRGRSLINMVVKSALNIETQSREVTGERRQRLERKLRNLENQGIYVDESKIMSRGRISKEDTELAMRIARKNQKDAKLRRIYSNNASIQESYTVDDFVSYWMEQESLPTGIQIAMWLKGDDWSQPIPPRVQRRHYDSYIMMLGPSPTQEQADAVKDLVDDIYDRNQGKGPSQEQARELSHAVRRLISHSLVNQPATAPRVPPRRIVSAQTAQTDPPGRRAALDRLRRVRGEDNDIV
In words: single-molecule TIRF.

The target in data set [4] is T2, DCV-1A (Drosophila C virus, UniProt O36966 1-97).
T2 sequence: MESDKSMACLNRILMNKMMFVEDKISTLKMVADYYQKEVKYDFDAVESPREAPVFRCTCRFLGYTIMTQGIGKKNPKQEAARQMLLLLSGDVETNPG
Kind of data set: single-molecule TIRF.

For data set [5], the target named is T2, DCV-1A. In words: single-molecule TIRF. The source holds these as a separate data set.
The target of data set [6] is T2, DCV-1A. In words: single-molecule TIRF. The source holds these as a separate data set.

In data set [1], “GGCAAUGAAAGAUCGCGGGUCUGCUCAAACACUCCGUUAUGUAGCAUUCCUUGAUCGUGAGAUUCUUCUU / AAGAAGAAUCUCACGAUCAAGGAAUGCUACAUAACGGAGUGUUUGAGCAGACCCGCGAUCUUUCAUUGCC [70-nt dsRNA blunt end]” gave a binding signal of 80 % inhibition.

B1: 70-nt dsRNA blunt end (dsRNA)
RNA 1: GGCAAUGAAAGAUCGCGGGUCUGCUCAAACACUCCGUUAUGUAGCAUUCCUUGAUCGUGAGAUUCUUCUU
RNA 2: AAGAAGAAUCUCACGAUCAAGGAAUGCUACAUAACGGAGUGUUUGAGCAGACCCGCGAUCUUUCAUUGCC
With B1, the binding result in data set [2] is on record as “binds”.

B2: 50-nt dsRNA (structured_RNA)
RNA: GGGACCUCAUCCAACAUAUCAAACUCCAUCAUCCAACAUAUCAAACUCCAGUCGAGUGGAGUUUGAUAUGUUGGAUGAUGGAGUUUGAUAUGUUGGAUGAGGUCCCAA
On to B2, for which the binding result in data set [3] and in data set [4] was “binds” in each case.

B3: pre-let-7a-1 (2 mismatches) (structured_RNA)
RNA: UGAGGUAGUAGGUUGUAUAGUUUUAGGGUCACACCCACCACUGGGAGAUAACUAUACAAUCUACUGUCUUUCU
Consider B3, for which, in data set [5], the binding result is on record as “binds”.

B4: pre-miRNA (no mismatches) (structured_RNA)
RNA: B3 RNA with G5A, U6C
As to B4, the binding result in data set [6] was “binds”.
